From article PMC7232441 (2020) come the findings set out here.

In this test the target is T1, CsTx-13 (Cupiennius salei, UniProt P83919).
T1 chain 1: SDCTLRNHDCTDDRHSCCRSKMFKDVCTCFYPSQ
T1 chain 2: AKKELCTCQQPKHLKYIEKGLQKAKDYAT
In words: microscale thermophoresis. (In MST a laser heats a spot of the sample, and binding alters the fluorescence response.)

B1: CsTx-9 (protein)
chain: KDDKNCIPKHHECTNDKKNCCKKGLTKMKCKCFTVADAKGATSERCACDSSLLQKFGFTGLHIIKGLF
As usually defined, the Kd is the constant that tells how readily two partners part at equilibrium. A low value points to a tighter complex. Regarding B1, the Kd was found to be 370 nM.

B2: CsTx-1 (protein)
chain: SCIPKHEECTNDKHNCCRKGLFKLKCQCSTFDDESGQPTERCACGRPMGHQAIETGLNIFRGLFKGKKKNKKTK
Take B2: binding was characterised by a dissociation constant (Kd) of 430 nM. The Kd values of the last two molecules are within 1.5-fold of each other.
